Target: T1, PUF4 RNA-binding domain (Saccharomyces cerevisiae, UniProt P25339 537-888)
T1 sequence: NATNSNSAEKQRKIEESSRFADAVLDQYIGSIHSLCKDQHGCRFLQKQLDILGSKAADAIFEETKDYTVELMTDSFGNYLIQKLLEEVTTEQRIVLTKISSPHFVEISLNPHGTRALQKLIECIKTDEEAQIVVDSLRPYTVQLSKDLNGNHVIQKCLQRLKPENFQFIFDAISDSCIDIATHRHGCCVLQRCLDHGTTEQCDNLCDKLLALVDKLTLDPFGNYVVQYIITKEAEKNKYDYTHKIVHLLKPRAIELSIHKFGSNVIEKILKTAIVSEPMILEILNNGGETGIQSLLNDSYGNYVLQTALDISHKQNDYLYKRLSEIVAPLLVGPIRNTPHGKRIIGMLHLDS
Experiment: Mg; RNA-MaP; 20 mM Na-HEPES pH 7.4, 30 mM KOAc, 0.75 mM MgCl2, 0.1% Tween-20, 5% glycerol, 0.1 mg/mL BSA, 2 mM DTT; 25 C; 0.0125-409.6 nM protein
Details: tags: N-His6-TEV cleaved; C-SNAP kept, Cy3B-labelled; label: tethered on chip by stalled RNA polymerase

B1: Ib_S4_P5E.1_K5.1_C5.1_H5.1_[A4C]_A5.1_F5.1_[A10T]_T5.1 (ssRNA)
RNA: UUUGACAACUGAUCGUUCUUUCUUGUCUUAUUUUUCUUUCUCGAUCAGUUGUCUUU
  Kd: 201 nM

B2: Ib_S4_P5E.1_K5.1_C5.1_H5.1_[A4T]_A5.1_F5.1_[A10T]_T5.1 (ssRNA)
RNA: UUUGACAACUGAUCGUUCUUUCUUGUUUUAUUUUUCUUUCUCGAUCAGUUGUCUUU
  Kd: 119 nM

B3: Ib_S4_P5E.1_K5.1_C5.1_H5.1_A5.1_[T5G]_F5.1_[T8C]_T5.1 (ssRNA)
RNA: UUUGACAACUGAUCGUUCUUUCUUGUAGUACUAUUCUUUCUCGAUCAGUUGUCUUU
  Kd: 13.1 nM

B4: Ia_S4_P4E.1_K4.1_C4.1_H4.1_[A4G]_A4.1_F4.1_T4.1 (ssRNA)
RNA: UUUGACAACUGAUCGUUCUUUCUUGUGUAUUAUUCUUUCUCGAUCAGUUGUCUUU
  Kd: 1.25 nM

B5: Ic_S4_P5E.1_K5.1_C5.1_H5.1_A5.1_[T5C]_F5.1_[T8C]_T5.1 (ssRNA)
RNA: UUUGACAACUGAUCGUUCUUUCUUGUACUACUAUUCUUUCUCGAUCAGUUGUCUUU
  Kd: 3.13 nM

B6: Ib_S4_P5E.1_K5.1_C5.1_H5.1_A5.1_[T5A]_F5.1_[T8A]_T5.1 (ssRNA)
RNA: UUUGACAACUGAUCGUUCUUUCUUGUAAUAAUAUUCUUUCUCGAUCAGUUGUCUUU
  Kd: 13.8 nM

B7: Ib_S4_P5E.1_K5.1_C5.1_H5.1_A5.1_[T6A]_F5.1_[T8C]_T5.1 (ssRNA)
RNA: UUUGACAACUGAUCGUUCUUUCUUGUAUAACUAUUCUUUCUCGAUCAGUUGUCUUU
  Kd: 5.07 nM

B8: Ib_S4_P5E.1_K5.1_C5.1_H5.1_A5.1_[T6A]_F5.1_[T8A]_T5.1 (ssRNA)
RNA: UUUGACAACUGAUCGUUCUUUCUUGUAUAAAUAUUCUUUCUCGAUCAGUUGUCUUU
  Kd: 9.5 nM

B9: Ib_S4_P5E.1_K5.1_C5.1_H5.1_A5.1_[A7C]_F5.1_[T8G]_T5.1 (ssRNA)
RNA: UUUGACAACUGAUCGUUCUUUCUUGUAUUCGUAUUCUUUCUCGAUCAGUUGUCUUU
  Kd: 10.4 nM

B10: Ib_S4_P5E.1_K5.1_C5.1_H5.1_A5.1_[A7T]_F5.1_[T8G]_T5.1 (ssRNA)
RNA: UUUGACAACUGAUCGUUCUUUCUUGUAUUUGUAUUCUUUCUCGAUCAGUUGUCUUU
  Kd: 3.74 nM

B11: Ib_S4_P5E.1_K5.1_C5.1_H5.1_A5.1_[A7G]_F5.1_[T8C]_T5.1 (ssRNA)
RNA: UUUGACAACUGAUCGUUCUUUCUUGUAUUGCUAUUCUUUCUCGAUCAGUUGUCUUU
  Kd: 14.9 nM

B12: Ib_S4_P5E.1_K5.1_C5.1_H5.1_A5.1_[A7T]_F5.1_[T8C]_T5.1 (ssRNA)
RNA: UUUGACAACUGAUCGUUCUUUCUUGUAUUUCUAUUCUUUCUCGAUCAGUUGUCUUU
  Kd: 3.12 nM

B13: Ib_S4_P5E.1_K5.1_C5.1_H5.1_A5.1_[T5C]_F5.1_[T9C]_T5.1 (ssRNA)
RNA: UUUGACAACUGAUCGUUCUUUCUUGUACUAUCAUUCUUUCUCGAUCAGUUGUCUUU
  Kd: 27.6 nM

B14: Ib_S4_P5E.1_K5.1_C5.1_H5.1_A5.1_[T5G]_F5.1_[T9A]_T5.1 (ssRNA)
RNA: UUUGACAACUGAUCGUUCUUUCUUGUAGUAUAAUUCUUUCUCGAUCAGUUGUCUUU
  Kd: 7.64 nM

B15: Ia_S4_P4E.1_K4.1_C4.1_H4.1_A4.1_[T5C]_F4.1_T4.1 (ssRNA)
RNA: UUUGACAACUGAUCGUUCUUUCUUGUACAUUAUUCUUUCUCGAUCAGUUGUCUUU
  Kd: 0.303 nM

B16: Ic_S4_P5E.1_K5.1_C5.1_H5.1_A5.1_[T6C]_F5.1_[T9A]_T5.1 (ssRNA)
RNA: UUUGACAACUGAUCGUUCUUUCUUGUAUCAUAAUUCUUUCUCGAUCAGUUGUCUUU
  Kd: 1.47 nM

B17: Ib_S4_P5E.1_K5.1_C5.1_H5.1_A5.1_[A7G]_F5.1_[T9C]_T5.1 (ssRNA)
RNA: UUUGACAACUGAUCGUUCUUUCUUGUAUUGUCAUUCUUUCUCGAUCAGUUGUCUUU
  Kd: 393 nM

B18: Ib_S4_P5E.1_K5.1_C5.1_H5.1_A5.1_[A7C]_F5.1_[T9C]_T5.1 (ssRNA)
RNA: UUUGACAACUGAUCGUUCUUUCUUGUAUUCUCAUUCUUUCUCGAUCAGUUGUCUUU
  Kd: 56 nM

B19: Ib_S4_P5E.1_K5.1_C5.1_H5.1_A5.1_[A7T]_F5.1_[T9C]_T5.1 (ssRNA)
RNA: UUUGACAACUGAUCGUUCUUUCUUGUAUUUUCAUUCUUUCUCGAUCAGUUGUCUUU
  Kd: 69.4 nM

B20: Ib_S4_P5E.1_K5.1_C5.1_H5.1_A5.1_[T5G]_F5.1_[A10G]_T5.1 (ssRNA)
RNA: UUUGACAACUGAUCGUUCUUUCUUGUAGUAUUGUUCUUUCUCGAUCAGUUGUCUUU
  Kd: 109 nM

B21: Ib_S4_P5E.1_K5.1_C5.1_H5.1_A5.1_[T5A]_F5.1_[A10C]_T5.1 (ssRNA)
RNA: UUUGACAACUGAUCGUUCUUUCUUGUAAUAUUCUUCUUUCUCGAUCAGUUGUCUUU
  Kd: 29.4 nM

B22: Ib_S4_P5E.1_K5.1_C5.1_H5.1_A5.1_[T5C]_F5.1_[A10T]_T5.1 (ssRNA)
RNA: UUUGACAACUGAUCGUUCUUUCUUGUACUAUUUUUCUUUCUCGAUCAGUUGUCUUU
  Kd: 4.98 nM

B23: Ib_S4_P5E.1_K5.1_C5.1_H5.1_A5.1_[T6C]_F5.1_[A10T]_T5.1 (ssRNA)
RNA: UUUGACAACUGAUCGUUCUUUCUUGUAUCAUUUUUCUUUCUCGAUCAGUUGUCUUU
  Kd: 7.7 nM

B24: Ib_S4_P5E.1_K5.1_C5.1_H5.1_A5.1_[A7G]_F5.1_[A10G]_T5.1 (ssRNA)
RNA: UUUGACAACUGAUCGUUCUUUCUUGUAUUGUUGUUCUUUCUCGAUCAGUUGUCUUU
  Kd: 52.3 nM

B25: Ib_S4_P5E.1_K5.1_C5.1_H5.1_A5.1_[A7T]_F5.1_[A10G]_T5.1 (ssRNA)
RNA: UUUGACAACUGAUCGUUCUUUCUUGUAUUUUUGUUCUUUCUCGAUCAGUUGUCUUU
  Kd: 9.13 nM

B26: Ic_S4_P4E.1_K4.1_C4.1_H4.1_A4.1_[T5A]_F4.1_T4.1 (ssRNA)
RNA: UUUGACAACUGAUCGUUCUUUCUUGUAAAUUAUUCUUUCUCGAUCAGUUGUCUUU
  Kd: 1.69 nM

B27: Ic_S4_P5E.1_K5.1_C5.1_H5.1_A5.1_[A7C]_F5.1_[A10T]_T5.1 (ssRNA)
RNA: UUUGACAACUGAUCGUUCUUUCUUGUAUUCUUUUUCUUUCUCGAUCAGUUGUCUUU
  Kd: 13.8 nM

B28: Ib_S4_P5E.1_K5.1_C5.1_H5.1_A5.1_[A7T]_F5.1_[A10T]_T5.1 (ssRNA)
RNA: UUUGACAACUGAUCGUUCUUUCUUGUAUUUUUUUUCUUUCUCGAUCAGUUGUCUUU
  Kd: 10.7 nM

B29: Ib_S4_P5E.1_K5.1_C5.1_H5.1_[T1C]_[G2T]_A5.1_F5.1_T5.1 (ssRNA)
RNA: UUUGACAACUGAUCGUUCUUUCUCUUAUUAUUAUUCUUUCUCGAUCAGUUGUCUUU
  Kd: > 2300 nM

B30: Ib_S4_P5E.1_K5.1_C5.1_H5.1_[T1C]_[G2A]_A5.1_F5.1_T5.1 (ssRNA)
RNA: UUUGACAACUGAUCGUUCUUUCUCAUAUUAUUAUUCUUUCUCGAUCAGUUGUCUUU
  Kd: 1660 nM

B31: Ib_S4_P5E.1_K5.1_C5.1_H5.1_[T1C]_[T3C]_A5.1_F5.1_T5.1 (ssRNA)
RNA: UUUGACAACUGAUCGUUCUUUCUCGCAUUAUUAUUCUUUCUCGAUCAGUUGUCUUU
  Kd: > 2300 nM

B32: Ib_S4_P5E.1_K5.1_C5.1_H5.1_[T1A]_[T3C]_A5.1_F5.1_T5.1 (ssRNA)
RNA: UUUGACAACUGAUCGUUCUUUCUAGCAUUAUUAUUCUUUCUCGAUCAGUUGUCUUU
  Kd: > 2300 nM

B33: Ib_S4_P5E.1_K5.1_C5.1_H5.1_[T1G]_[A4C]_A5.1_F5.1_T5.1 (ssRNA)
RNA: UUUGACAACUGAUCGUUCUUUCUGGUCUUAUUAUUCUUUCUCGAUCAGUUGUCUUU
  Kd: > 2300 nM

B34: Ib_S4_P5E.1_K5.1_C5.1_H5.1_[T1C]_[A4T]_A5.1_F5.1_T5.1 (ssRNA)
RNA: UUUGACAACUGAUCGUUCUUUCUCGUUUUAUUAUUCUUUCUCGAUCAGUUGUCUUU
  Kd: 1050 nM

B35: Ib_S4_P5E.1_K5.1_C5.1_H5.1_[T1A]_[A4G]_A5.1_F5.1_T5.1 (ssRNA)
RNA: UUUGACAACUGAUCGUUCUUUCUAGUGUUAUUAUUCUUUCUCGAUCAGUUGUCUUU
  Kd: 1260 nM

B36: Ib_S4_P5E.1_K5.1_C5.1_H5.1_[G2A]_[T3A]_A5.1_F5.1_T5.1 (ssRNA)
RNA: UUUGACAACUGAUCGUUCUUUCUUAAAUUAUUAUUCUUUCUCGAUCAGUUGUCUUU
  Kd: 2140 nM

B37: Ia_S4_P4E.1_K4.1_C4.1_H4.1_A4.1_[A6C]_F4.1_T4.1 (ssRNA)
RNA: UUUGACAACUGAUCGUUCUUUCUUGUAUCUUAUUCUUUCUCGAUCAGUUGUCUUU
  Kd: 2.17 nM

B38: Ib_S4_P5E.1_K5.1_C5.1_H5.1_[G2C]_[A4G]_A5.1_F5.1_T5.1 (ssRNA)
RNA: UUUGACAACUGAUCGUUCUUUCUUCUGUUAUUAUUCUUUCUCGAUCAGUUGUCUUU
  Kd: 455 nM

B39: Ib_S4_P5E.1_K5.1_C5.1_H5.1_[G2C]_[A4T]_A5.1_F5.1_T5.1 (ssRNA)
RNA: UUUGACAACUGAUCGUUCUUUCUUCUUUUAUUAUUCUUUCUCGAUCAGUUGUCUUU
  Kd: > 2300 nM

B40: Ib_S4_P5E.1_K5.1_C5.1_H5.1_[G2T]_[A4G]_A5.1_F5.1_T5.1 (ssRNA)
RNA: UUUGACAACUGAUCGUUCUUUCUUUUGUUAUUAUUCUUUCUCGAUCAGUUGUCUUU
  Kd: 492 nM

B41: Ib_S4_P5E.1_K5.1_C5.1_H5.1_[G2A]_[A4T]_A5.1_F5.1_T5.1 (ssRNA)
RNA: UUUGACAACUGAUCGUUCUUUCUUAUUUUAUUAUUCUUUCUCGAUCAGUUGUCUUU
  Kd: 1440 nM

B42: Ib_S4_P5E.1_K5.1_C5.1_H5.1_[T3G]_[A4C]_A5.1_F5.1_T5.1 (ssRNA)
RNA: UUUGACAACUGAUCGUUCUUUCUUGGCUUAUUAUUCUUUCUCGAUCAGUUGUCUUU
  Kd: 1880 nM

B43: Ib_S4_P5E.1_K5.1_C5.1_H5.1_[T3G]_[A4T]_A5.1_F5.1_T5.1 (ssRNA)
RNA: UUUGACAACUGAUCGUUCUUUCUUGGUUUAUUAUUCUUUCUCGAUCAGUUGUCUUU
  Kd: 745 nM

B44: Ib_S4_P5E.1_K5.1_C5.1_H5.1_[T3C]_[A4C]_A5.1_F5.1_T5.1 (ssRNA)
RNA: UUUGACAACUGAUCGUUCUUUCUUGCCUUAUUAUUCUUUCUCGAUCAGUUGUCUUU
  Kd: 862 nM

B45: Ib_S4_P5E.1_K5.1_C5.1_H5.1_[T3C]_[A4T]_A5.1_F5.1_T5.1 (ssRNA)
RNA: UUUGACAACUGAUCGUUCUUUCUUGCUUUAUUAUUCUUUCUCGAUCAGUUGUCUUU
  Kd: 453 nM

B46: Ib_S4_P5E.1_K5.1_C5.1_H5.1_[T1C]_A5.1_[T5G]_F5.1_T5.1 (ssRNA)
RNA: UUUGACAACUGAUCGUUCUUUCUCGUAGUAUUAUUCUUUCUCGAUCAGUUGUCUUU
  Kd: > 2300 nM

B47: Ib_S4_P5E.1_K5.1_C5.1_H5.1_[T1C]_A5.1_[T6C]_F5.1_T5.1 (ssRNA)
RNA: UUUGACAACUGAUCGUUCUUUCUCGUAUCAUUAUUCUUUCUCGAUCAGUUGUCUUU
  Kd: 637 nM

B48: Ia_S4_P4E.1_K4.1_C4.1_H4.1_A4.1_[A6T]_F4.1_T4.1 (ssRNA)
RNA: UUUGACAACUGAUCGUUCUUUCUUGUAUUUUAUUCUUUCUCGAUCAGUUGUCUUU
  Kd: 1.24 nM

Reference: publication PMC9352680, “A comprehensive thermodynamic model for RNA binding by the Saccharomyces cerevisiae Pumilio protein PUF4”
